Experimental data as given in paper PMC13233901.

B1: wild type (WT) estrogen receptor [human (endogenous in and MCF7)] / progesterone receptor [human (endogenous in and MCF7)] (parent)
chain 1: MTMTLHTKASGMALLHQIQGNELEPLNRPQLKIPLERPLGEVYLDSSKPAVYNYPEGAAYEFNAAAAANAQVYGQTGLPYGPGSEAAAFGSNGLGGFPPLNSVSPSPLMLLHPPPQLSPFLQPHGQQVPYYLENEPSGYTVREAGPPAFYRPNSDNRRQGGRERLASTNDKGSMAMESAKETRYCAVCNDYASGYHYGVWSCEGCKAFFKRSIQGHNDYMCPATNQCTIDKNRRKSCQACRLRKCYEVGMMKGGIRKDRRGGRMLKHKRQRDDGEGRGEVGSAGDMRAANLWPSPLMIKRSKKNSLALSLTADQMVSALLDAEPPILYSEYDPTRPFSEASMMGLLTNLADRELVHMINWAKRVPGFVDLTLHDQVHLLECAWLEILMIGLVWRSMEHPGKLLFAPNLLLDRNQGKCVEGMVEIFDMLLATSSRFRMMNLQGEEFVCLKSIILLNSGVYTFLSSTLKSLEEKDHIHRVLDKITDTLIHLMAKAGLTLQQQHQRLAQLLLILSHIRHMSNKGMEHLYSMKCKNVVPLYDLLLEMLDAHRLHAPTSRGGASVEETDQSHLATAGSTSSHSLQKYYITGEAEGFPATV
chain 2: MTELKAKGPRAPHVAGGPPSPEVGSPLLCRPAAGPFPGSQTSDTLPEVSAIPISLDGLLFPRPCQGQDPSDEKTQDQQSLSDVEGAYSRAEATRGAGGSSSSPPEKDSGLLDSVLDTLLAPSGPGQSQPSPPACEVTSSWCLFGPELPEDPPAAPATQRVLSPLMSRSGCKVGDSSGTAAAHKVLPRGLSPARQLLLPASESPHWSGAPVKPSPQAAAVEVEEEDGSESEESAGPLLKGKPRALGGAAAGGGAAAVPPGAAAGGVALVPKEDSRFSAPRVALVEQDAPMAPGRSPLATTVMDFIHVPILPLNHALLAARTRQLLEDESYDGGAGAASAFAPPRSSPCASSTPVAVGDFPDCAYPPDAEPKDDAYPLYSDFQPPALKIKEEEEGAEASARSPRSYLVAGANPAAFPDFPLGPPPPLPPRATPSRPGEAAVTAAPASASVSSASSSGSTLECILYKAEGAPPQQGPFAPPPCKAPGASGCLLPRDGLPSTSASAAAAGAAPALYPALGLNGLPQLGYQAAVLKEGLPQVYPPYLNYLRPDSEASQSPQYSFESLPQKICLICGDEASGCHYGVLTCGSCKVFFKRAMEGQHNYLCAGRNDCIVDKIRRKNCPACRLRKCCQAGMVLGGRKFKKFNKVRVVRALDAVALPQPVGVPNESQALSQRFTFSPGQDIQLIPPLINLLMSIEPDVIYAGHDNTKPDTSSSLLTSLNQLGERQLLSVVKWSKSLPGFRNLHIDDQITLIQYSWMSLMVFGLGWRSYKHVSGQMLYFAPDLILNEQRMKESSFYSLCLTMWQIPQEFVKLQVSQEEFLCMKVLLLLNTIPLEGLRSQTQFEEMRSSYIRELIKAIGLRQKGVVSSSQRFYQLTKLLDNLHDLVKQLHLYCLNTFIQSRALSVEFPEMMSEVIAAQLPKILAGMVKPLLFHKK

Variants of: B1
Test: proximity ligation assay (PLA)
Conditions: with progesterone receptor [human (endogenous in T47D and MCF7)], read off a plot
[1] = MCF7 cells, basal (no added hormone), parent: 1.2
[2] = T47D cells, basal (no added hormone), parent: 6.4

Variant	response [1] [Dots/Cell]	response [2] [Dots/Cell]	response (T47D cells, R5020 (10 nM) for 30 min, parent: 11) [Dots/Cell]
chain 1 MTMTLHTKASGMALLHQIQGNELEPLNRPQLKIPLERPLGEVYLDSSKPAVYNYPEGAAYEFNAAAAANAQVYGQTGLPYGPGSEAAAFGSNGLGGFPPLNSVSPSPLMLLHPPPQLSPFLQPHGQQVPYYLENEPSGYTVREAGPPAFYRPNSDNRRQGGRERLASTNDKGSMAMESAKETRYCAVCNDYASGYHYGVWSCEGCKAFFKRSIQGHNDYMCPATNQCTIDKNRRKSCQACRLRKCYEVGMMKGGIRKDRRGGRMLKHKRQRDDGEGRGEVGSAGDMRAANLWPSPLMIKRSKKNSLALSLTADQMVSALLDAEPPILYSEYDPTRPFSEASMMGLLTNLADRELVHMINWAKRVPGFVDLTLHDQVHLLECAWLEILMIGLVWRSMEHPGKLLFAPNLLLDRNQGKCVEGMVEIFDMLLATSSRFRMMNLQGEEFVCLKSIILLNSGVYTFLSSTLKSLEEKDHIHRVLDKITDTLIHLMAKAGLTLQQQHQRLAQLLLILSHIRHMSNKGMEHLYSMKCKNVVPLYGLLLEMLDAHRLHAPTSRGGASVEETDQSHLATAGSTSSHSLQKYYITGEAEGFPATV [chain 1 D538G]	0.58	1	
chain 1 MTMTLHTKASGMALLHQIQGNELEPLNRPQLKIPLERPLGEVYLDSSKPAVYNYPEGAAYEFNAAAAANAQVYGQTGLPYGPGSEAAAFGSNGLGGFPPLNSVSPSPLMLLHPPPQLSPFLQPHGQQVPYYLENEPSGYTVREAGPPAFYRPNSDNRRQGGRERLASTNDKGSMAMESAKETRYCAVCNDYASGYHYGVWSCEGCKAFFKRSIQGHNDYMCPATNQCTIDKNRRKSCQACRLRKCYEVGMMKGGIRKDRRGGRMLKHKRQRDDGEGRGEVGSAGDMRAANLWPSPLMIKRSKKNSLALSLTADQMVSALLDAEPPILYSEYDPTRPFSEASMMGLLTNLADRELVHMINWAKRVPGFVDLTLHDQVHLLECAWLEILMIGLVWRSMEHPGKLLFAPNLLLDRNQGKCVEGMVEIFDMLLATSSRFRMMNLQGEEFVCLKSIILLNSGVYTFLSSTLKSLEEKDHIHRVLDKITDTLIHLMAKAGLTLQQQHQRLAQLLLILSHIRHMSNKGMEHLYSMKCKNVVPLSDLLLEMLDAHRLHAPTSRGGASVEETDQSHLATAGSTSSHSLQKYYITGEAEGFPATV [chain 1 Y537S]	0.68	1.6	13
